Measurements as given in publication PMC5554458 (Cellular signalling, 2017).

Tests used:
Assay in all cases: inhibition of enzyme activity
PDE6C-H262N = PDE6C-H262N (human, UniProt P51160 1-858, H262N)
PDE6C-Y323N = PDE6C-Y323N (human, UniProt P51160 1-858, Y323N)
PDE6C-L858V = PDE6C-L858V (human, UniProt P51160 1-858, L858V, farnesyl on the Cys of the C-terminal CAAX box (farnesylated PDE6C-L858V))
Chain of PDE6C-L858V (P51160 whole entry L858V): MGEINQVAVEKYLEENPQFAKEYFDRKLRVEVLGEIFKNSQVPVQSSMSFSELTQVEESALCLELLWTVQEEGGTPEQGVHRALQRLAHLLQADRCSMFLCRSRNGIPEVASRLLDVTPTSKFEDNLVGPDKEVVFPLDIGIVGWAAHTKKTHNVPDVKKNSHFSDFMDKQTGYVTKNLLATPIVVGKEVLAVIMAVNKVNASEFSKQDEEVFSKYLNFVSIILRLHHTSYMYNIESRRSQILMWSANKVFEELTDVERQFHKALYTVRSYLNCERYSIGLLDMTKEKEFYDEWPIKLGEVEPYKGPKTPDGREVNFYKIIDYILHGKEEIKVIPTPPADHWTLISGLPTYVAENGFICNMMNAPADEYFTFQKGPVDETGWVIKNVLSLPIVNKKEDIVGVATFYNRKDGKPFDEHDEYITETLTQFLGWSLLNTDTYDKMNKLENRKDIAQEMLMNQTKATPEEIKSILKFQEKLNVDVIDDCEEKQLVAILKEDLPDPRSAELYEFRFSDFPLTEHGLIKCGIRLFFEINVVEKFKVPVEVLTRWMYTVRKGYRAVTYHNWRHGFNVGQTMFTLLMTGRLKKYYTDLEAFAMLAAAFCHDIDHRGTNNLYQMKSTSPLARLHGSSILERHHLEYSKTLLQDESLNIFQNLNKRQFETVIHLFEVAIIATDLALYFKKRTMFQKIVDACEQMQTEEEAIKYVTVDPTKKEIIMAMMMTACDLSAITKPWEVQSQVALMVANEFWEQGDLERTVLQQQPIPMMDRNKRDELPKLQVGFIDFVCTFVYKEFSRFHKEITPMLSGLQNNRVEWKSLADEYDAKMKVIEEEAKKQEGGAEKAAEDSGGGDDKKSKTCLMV

Chain of PDE6C-H262N (P51160 whole entry H262N): as the sequence (P51160 whole entry L858V) above, with H262N, V858L counted along it
Chain of PDE6C-Y323N (P51160 whole entry Y323N): as the sequence (P51160 whole entry L858V) above, with Y323N, V858L counted along it

Ki (PDE6C-H262N): 0.222 nM
Ki (PDE6C-Y323N): 0.176 nM
Ki (PDE6C-L858V): 0.114 nM
B1: bovine rod Pγ (natural protein, UniProt P04972 1-87, looked up)
chain: MNLEPPKAEIRSATRVMGGPVTPRKGPPKFKQRQTRQFKSKPPKKGVQGFGDDIPGMEGLGTDITVICPWEAFNHLELHELAQYGII
